Experimental data reported in patent US20060040319A1, “Multiple sensor-containing active modified polypeptides, preparation and uses thereof” (priority 2000, published 2006).
Where no end group is shown, it is not given here.

What was measured:
[1] = biological target: T1, GST fusion of mouse c-Abl containing only the SH2 and kinase domains (Mus musculus, UniProt P00520); experiment: Kinase assay with truncated c-Abl containing only the SH2 and kinase domains; type: biochemical; conditions: truncated c-Abl, after 60 min
T1 construct: a GST fusion of mouse c-Abl containing only the SH2 and kinase domains; made in house; host or cells: E. coli BL21
T1 sequence (P00520 127-493): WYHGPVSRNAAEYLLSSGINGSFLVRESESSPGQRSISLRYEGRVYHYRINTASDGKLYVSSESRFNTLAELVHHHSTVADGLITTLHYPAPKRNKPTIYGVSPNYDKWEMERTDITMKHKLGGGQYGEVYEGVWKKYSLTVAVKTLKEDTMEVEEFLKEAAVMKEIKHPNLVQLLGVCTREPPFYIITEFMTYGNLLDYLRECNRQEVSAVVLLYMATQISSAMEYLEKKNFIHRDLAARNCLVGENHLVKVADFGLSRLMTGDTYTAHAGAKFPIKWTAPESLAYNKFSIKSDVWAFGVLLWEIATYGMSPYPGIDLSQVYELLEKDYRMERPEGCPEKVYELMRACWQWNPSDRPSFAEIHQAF
Experimental: (§1) Purified Rh-(Crk-II)-Fl prepared as described in Example I was treated with either full length recombinant (Baculovirus/SF9) mouse c-Abl or a GST fusion of mouse c-Abl containing only the SH2 and kinase domains (expressed in E. coli BL21 essentially as described (19)). In a typical experiment, the appropriate c-Abl construct was incubated in reaction buffer (2 mM DTT, 0.2 mg/ml BSA, 10 mM Mg^2+, 50 mM Tris, pH 7.4, either with or without ATP (500 μM)) for 5 min at 30° C. before addition of Rh-(Crk-II)-Fl (final concentration=0.25 μM). In order to ensure that equal amounts of active c-Abl enzyme were added to each reaction, preliminary titration experiments were carried out using an optimized peptide substrate for c-Abl (EAIYAAPFAKKK (SEQ ID No:2) (20)). […] In all cases, aliquots of the reaction mixtures were removed at ˜1 min and 60 min, quenched with EDTA (final conc.=40 mM), and then analyzed by native-PAGE and/or Western blotting and fluorescence spectroscopy. […]
(§2) Fluorescence Spectroscopy. […] Excitation was at 490 nm with a 2.5 nm slit and the fluorescence emission was monitored at 520 nm and 580 nm through a 4 nm slit. […] Rh-(Crk-II)-Fl was treated with full length recombinant c-Abl and aliquots of the reaction mixture were analyzed by fluorescence spectroscopy and western blotting at ˜1 min and 60 min time-points. […]

[2] = biological target: T2, N-SH3 domain of Crk-II (binding to c-Abl) (Mus musculus, UniProt Q64010); experiment: Peptide inhibition study: Crk-II phosphorylation by full length c-Abl in presence of N-SH3 ligand (Rh-(Crk-II)-Fl biosensor); type: biochemical; conditions: fluorescence-based assay
T2 construct: extra Gly plus fluorescein peptide (Cys-Fl-PS, remainder after PreScission site) (C); made in house; host or cells: E. coli BL21 (Crk-II-intein fusion), then ligation of synthetic peptides
T2 sequence (Q64010 with tags, fused parts or gaps): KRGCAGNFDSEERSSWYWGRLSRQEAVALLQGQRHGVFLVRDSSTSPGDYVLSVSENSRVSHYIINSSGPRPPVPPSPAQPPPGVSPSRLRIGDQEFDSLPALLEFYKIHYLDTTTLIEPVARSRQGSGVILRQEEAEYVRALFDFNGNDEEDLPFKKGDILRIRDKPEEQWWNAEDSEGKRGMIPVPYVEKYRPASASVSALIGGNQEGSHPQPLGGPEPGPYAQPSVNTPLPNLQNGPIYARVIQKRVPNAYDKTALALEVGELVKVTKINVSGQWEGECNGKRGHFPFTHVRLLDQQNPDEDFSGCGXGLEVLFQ
Experimental: as §1, §2

Substance | phosphorylation of optimized peptide substrate [1] | effect on Crk-II phosphorylation by c-Abl [2]
EAIYAAPFAKKK (Peptide Substrate) [optimized peptide substrate for c-Abl, reference compound] | completely phosphorylated | 
PPPALPPKRRR-NH2 [high affinity N-SH3 ligand] |  | partially inhibit Crk-II phosphorylation
